Results: US6420338B1, “Inhibition of the Src kinase family pathway as a method of treating HBV infection and hepatocellular carcinoma” (New York University Medical Center, priority 1997, dated 2002)

Key:
MAP kinase (ERK2) [1] = experiment: MAP kinase (ERK2) immunoprecipitation MBP kinase assay in Chang cells expressing HBx; format: cell-based
AP-1 [2] = experiment: AP-1 electrophoretic mobility shift assay (EMSA) on nuclear extracts of Chang cells expressing HBx; format: cell-based; conditions: cotransfection of increasing amounts of plasmid
Method: (§1) FIGS. 3A and 3B. Transcriptional activation of AP-1 by HBx involves activation of Src kinases. Chang cells transfected with 8 μg plasmids pCMV-X or pCMV-Xo, with or without cotransfection of pCsk for 18 h, then serum starved for 18 h. (FIG. 3A) Cell extracts were prepared for AP-1 EMSA as described (Benn et al., 1996, supra) using a ^32P-labeled dsDNA oligonucleotide probe containing one AP-1 binding site. Reactions were carried out using 3 μg of nuclear extract, labeled oligonuleotide and 1 μg of poly(dI-dC) for 30 min at 23° C. Protein-DNA complexes were resolved by electrophoresis on 4% polyacrylamide gels and visualized by PhosphorImage analysis. As a positive control for AP-1 stimulation, cells were treated with 20 μM TPA for 30 min. (FIG. 3B) Cells were transfected as above but contained in addition 3 μg of plasmid pAP-1LUC, which encodes the luciferase reporter under the control of four AP-1 binding sites and a minimal TATA box promoter. Serum starved cells were harvested 18 h after transfection and the level of expression of the luciferase reporter assayed. Results are the average of three independent experiments.
Nuclear extracts were prepared according to a modified Dignam protocol (Su and Schneider, 1996). […]

AP-1 [3] = experiment: AP-1 dependent luciferase reporter in Chang cells expressing HBx; format: cell-based; conditions: AP-1 luciferase reporter
Method: as §1
Here it is shown that HBx activation of AP-1 DNA binding activity and AP-1 directed transcription, both involve an essential requirement for HBx activation of Src tyrosine kinases. […]

N-Myc = N-Myc immunoblot of nuclear extracts of Chang cells expressing HBx; format: cell-based; conditions: Chang cells co-expressing HBx; serum-starved 20 hours
Method: Cells were lysed in 1% Triton, 20 mM Hepes pH 7.4, 150 mM NaCl, 10% Glycerol, 1 mM Na3VO4, 50 mM NaF, 1 mM PMSF, 10 μg/ml aprotinin, and 10 μg/ml leupeptin. Equal amounts of protein were immunoprecipitated on ice for 2 hours and the immune complexes were collected by incubation with protein A-agarose (Santa Cruz) for 60 minutes at 4° C. Immunoprecipitates were washed three times with HNTG (20 mM Hepes pH 7.4, 150 mM NaCl, 0.1% Triton, and 10% Glycerol), resuspended in Laemmli sample buffer, heated to 95° C. for 10 minutes, resolved by electrophoresis on SDS-polyacrylamide gels, and immunoblotted to nitrocellulose using standard techniques (Harlow and Lane, 1988, Antibodies: A Laboratory Manual (Cold Spring Harbor, N.Y.; CSH Laboratory Press)). Immunoblots were visualized using the ECL chemiluminescence system (Amersham).
Nuclear extracts were prepared according to a modified Dignam protocol (Su and Schneider, 1996). Cell pellets were resuspended in 250 μl of cold Buffer A (10 mM Hepes pH 7.9, 1.5 mM MgCl2, 10 mM KCl, 0.5 mM DTT, 1 mM PMSF, 10 μg/ml leupeptin and 10 μg/ml aprotinin), swollen on ice for 10 min, vortexed for 10 sec, and centrifuged for 10 sec at 12,000×g. […]

MAP kinase (ERK2) [4] = experiment: MAP kinase (ERK2) MBP kinase assay in Chang cells transfected with wtWHV; format: cell-based; conditions: Chang cells co-transfected with wtWHV; serum-starved
Method: FIG. 6. Woodchuck Hepatitis B Virus (WHV) HBx protein (WHx) activates a Src-Ras signaling cascade during WHV replication in cultured cells. […] Eighteen hours post-transfection, cells were serum-starved in 0.5% CS for 20 hours, MAP kinase (ERK-2) was immunoprecipitated from equal amounts of cell lysates and pellets were subjected to an in vitro MBP kinase assay.
To assay for MAP kinase activity, cells were lysed in freshly prepared lysis buffer (10 mM Tris HCl pH 7.5, 1% Triton X-100, 0.5% NP-40, 1 mM EDTA, 1 mM EGTA, 1 mM Na3VO4, 50 mM NaF, 1 mM PMSF, 40 mM PPi, 10 μg/ml aprotinin, and 10 μg/ml leupeptin) and MAP kinase was immunoprecipitated using 1 μg/ml anti-ERK2 antibodies from equal amounts of protein. After 4 washes with lysis buffer, and 2 with kinase buffer (20 mM Hepes pH 7.4, 10 mM MgCl2), the immunoprecipitates were incubated with kinase buffer including 0.5 mg/ml myelin basic protein (MBP, Sigma), 10 mM ATP and 5 μCi [γ-^32P]ATP for 30 minutes at 30° C. […]
To determine whether WHx also requires activation of Src family kinases for stimulation of Ras signaling during ongoing viral replication, Chang cells were co-transfected with plasmids synthesizing wtWHV and dominant-negative Ras (RasDN), dominant-negative Src (SrcK^−), or Csk proteins, and activation of MAP kinase was measured. […]

WHV [5] = experiment: WHV replication in Chang cells, Southern blot of intracellular core-associated viral DNA; format: cell-based, Woodchuck Hepatitis B Virus; conditions: Chang cells co-transfected with wtWHV; 3 days post-transfection
Method: FIG. 7. WHx requires activation of Src family kinase for WHV replication. Chang cells were co-transfected with 20 μg PCWHV, wtWHV, wtWHV and RasDN (dominant-negative) (10 μg), or wtWHV and Csk (10 μg). Three days post-transfection viral core-associated DNA was isolated, purified, and subjected to Southern blot analysis using a full-length ^32P-labeled WHV genomic probe.
Chang cells were transfected with infectious WHV clones, (2×10 cm plates) were washed twice with PBS and lysed in 500 μl lysis buffer/10 cm plate (20 mM Tris HCl pH 7.5, 1 mM EDTA, 100 mM NaCl, 0.5% NP-40) for 10-15 minutes. Lysates were centrifuged at 12,000×g for 30 minutes, MgCl2 was adjusted to 10 mM, DNAseI (Boehringer Mannheim) was added to 20 U /ml and the lysates were incubated at 37° C. for 2 hours. Following DNAse I treatment, the lysates were centrifuged for 5 min at 12,000×g, layered onto a 20% sucrose cushion (300 μl of 20% sucrose in 20 mM Tris HCl pH 8.0, 150 mM NaCl) and centrifuged for 178,000×g for 3 hours at 20° C. […]
Chang cells were co-transfected with plasmids encoding either wtWHV, pCWHV, wtWHV and RasDN, or wtWHV and Csk, intracellular core-associated viral DNA was isolated 3 days post-transfection, and purified viral DNA analyzed by Southern blot hybridization as described above (FIG. 7).

WHV [6] = experiment: Northern blot of WHV viral mRNAs in Chang cells; format: cell-based, Woodchuck Hepatitis B Virus; conditions: Chang cells co-transfected with wtWHV
Method: Chang cells were washed twice with PBS and total RNA prepared according to the manufacturer's instructions (RNeasy mini kit; Qiagen). 15 μg total RNA per sample were resolved through a 1.2% formaldehyde-agarose gel (Sambrook et al., 1989, supra), transferred to Duralon UV membrane, and pre-hybridized in Quick-Hyb solution (Stratagene) at 65° C. Hybridization to 32P-labeled full length WHV probe was carried out in the same solution at 65° C., washed as described above, and autoradiographed for 1 day.
It was next addressed whether the stimulation of viral replication by WHx was a result of transcriptional transactivation of WHV genes by WHx. Chang cells were transfected with wtWHV or pCWHV plasmids. Total cellular RNA was isolated 4 days post-transfection, equal amounts of RNA were resolved by electrophoresis through a 1.2% formaldehyde-agarose gel, and the viral mRNAs were visualized by Northern blot analysis using a ^32P-labeled probe corresponding to the entire WHV genome (FIG. 8, lanes 1 and 4). Steady-state levels of the genomic viral mRNAs was enhanced ˜3-5 fold in Chang cells expressing wtWHV as compared to PCWHV. […]

CMV promoter = experiment: CMV-βgal reporter control (β-galactosidase activity); format: cell-based; conditions: co-expression with CMV-βgal
Text: To assess whether HBx activation of a Src signaling cascade plays an essential role in transcriptional upregulation of the viral mRNAs, Chang cells were co-transfected with wtWHV and either RasDN or Csk plasmids, and the RNA visualized by Northern analysis (FIG. 7, lanes 2 and 3). […] To ensure that the decrease in synthesis of WHV RNA by Csk was not the unforseen consequence of Csk inhibition of the CMV promoter (which drives synthesis of the WHV pregenomic RNA), control experiments assessing the effect of Csk on a CMV-βgal reporter were carried out. […] However, the WHx-induced increase in mRNA abundance (˜3-5 fold) is much less then the HBx-induced increase in viral DNA synthesis (˜20-30 fold). […] The stimulation of Src signaling cascades by HBx must therefore promote WHV replication independent of the effect of WHx on viral transcription.

B1: Csk: Csk (carboxyl-terminal Src kinase), a specific physiologic inhibitor of Src kinase, expressed from a CMV promoter plasmid (protein, UniProt P41240 2-450, looked up)
Tyrosine-protein kinase CSK: SAIQAAWPSGTECIAKYNFHGTAEQDLPFCKGDVLTIVAVTKDPNWYKAKNKVGREGIIPANYVQKREGVKAGTKLSLMPWFHGKITREQAERLLYPPETGLFLVRESTNYPGDYTLCVSCDGKVEHYRIMYHASKLSIDEEVYFENLMQLVEHYTSDADGLCTRLIKPKVMEGTVAAQDEFYRSGWALNMKELKLLQTIGKGEFGDVMLGDYRGNKVAVKCIKNDATAQAFLAEASVMTQLRHSNLVQLLGVIVEEKGGLYIVTEYMAKGSLVDYLRSRGRSVLGGDCLLKFSLDVCEAMEYLEGNNFVHRDLAARNVLVSEDNVAKVSDFGLTKEASSTQDTGKLPVKWTAPEALREKKFSTKSDVWSFGILLWEIYSFGRVPYPRIPLKDVVPRVEKGYKMDAPDGCPPAVYEVMKNCWHLDAAMRPSFLQLREQLEHIKTHELHL
effect on HBx activation of ERK2 (MAP kinase (ERK2) [1]; Chang cells co-expressing HBx, serum-starved in 0.5% CS for 24 hours): impaired | effect on HBx-induced activation of MAP kinase (MBP phosphorylation) (MAP kinase (ERK2) [1]; Chang cells co-transfected with HBx, serum-starved 20 hours, 2% serum restored for 2 hours): abolished | effect on activation of MAP kinase by insulin (MAP kinase (ERK2) [1]; Chang cells, overexpression, insulin stimulation): only slightly impaired | effect on HBx induction of AP-1 DNA binding complexes (AP-1 [2]): suppressed | effect on HBx induced activation of AP-1 dependent transcription (AP-1 [3]): fully blocked | effect on increase in N-Myc protein by HBx (N-Myc): impaired | effect on downstream activation of MAP kinase by wtWHV (MAP kinase (ERK2) [4]): efficiently inhibited | effect on WHV replication (viral DNA replicative intermediates) (WHV [5]): completely abolished | reduction of WHV RNA level (WHV [6]): 3-5 fold | effect on expression of βgal protein from CMV-βgal (β-galactosidase activity) (CMV promoter): did not significantly alter
